Test system: MS2 coat protein
Assay: apparent KD of MS2 coat protein; designed switch direction (-1 OFF switch, 1 ON switch): 1; higher = weaker reporter binding
In short: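 For each design, the apparent KD is the median over clusters of curves fitted to normalised cluster fluorescence. Clusters held RNA switches with common flanks, transcribed on Illumina chips by stalled E. coli RNA polymerase. These were titrated with SNAP-549-labelled MS2 coat protein, doubling from 0.7 or 1.5 nM to 3 µM, without input, with 200 uM small-molecule ligand, or with an oligonucleotide input.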

[1] = Eterna round: R95, input ligand: FMN 200 uM
[2] = Eterna round: R95, input ligand: microRNA oligo, concentration not stated
[3] = Eterna round: R95, input ligand: none
[4] = input ligand: microRNA oligo, concentration not stated

Sequence | apparent KD of MS2 coat protein [1] [nM] | apparent KD of MS2 coat protein [2] [nM] | apparent KD of MS2 coat protein [3] [nM] | apparent KD of MS2 coat protein [4] [nM] | apparent KD of MS2 coat protein (input ligand: FMN 200 uM) [nM] | apparent KD of MS2 coat protein (input ligand: none) [nM]
CAAAAUUAGUAGGAUAGGUACCCAGGAUGACAUGAGGAUCACCCAUGUAAGAGCUUUUUGCUCGUCAUUAACAGUUG [JR_SHM208a_Sub016] (puzzle: Sensor for hsa-mir-208a) | 55.7 | 55.7 | 68 | – | – | –
GGUGGGUUGCUGCCGGCACAUGAGGAUCACCCAUGUUUUGGGAAGGAUAUGGUACCUUUUUGGUGCCAGAAGGUCCCGUUGGUG [salish99_SSNG3_r04_712 large U pivot] (Eterna round: R96, puzzle: Same State NG 3) | – | – | – | 350 | – | –
UGUUGUAUUACAGGAUAUCUAUUAUUUUUAGUUAGAGAAGGGUAUUCACAUGAGGAUCACCCAUGUAUAUACGAGGAAGUUGUG [JMF's solution 26] (Eterna round: R96, puzzle: Same State NG 1) | – | – | – | 35.7 | – | –
GCUCGAUGAAUGUCCUACAUGAGGAUCACCCAUGUACGUGGGCAGGAUAUUUACAUGCAGAGUGUAGAGAAGGGCCCAUCGAGC [SameState NG3 #62] (Eterna round: R96, puzzle: Same State NG 3) | – | – | – | 28.6 | 16.1 | 49.1
AAUUAUUAACAUGAGGAUCACCCAUGUAAAACAUGGAUUAACAAGCCUUUUCGUUUUUGCUCGUCUUAUAUUAUUAA [Bojan's Design] (puzzle: Sensor for hsa-mir-208a version 2) | 167 | – | 199 | – | – | –
UAUGAACAUGAGGAUCACCCAUGUGGUAAGAUCACAGGAUAUCACCUCGGACGUGCGAUGUGAGAAGGGUGAUGGU [Same State 1 - Mod of Vinnie Anrelari v.2] (puzzle: Same State 1) | – | 419 | – | – | – | –
GGCGGCCUGGGAGGAUAUCGGGCCCUUUGGGCCCGAGAAGGUCCGGAGCCUCUGACAUGAGGAUCACCCAUGUAGGCUGCUGCC [first try] (Eterna round: R96, puzzle: Same State NG 1) | – | – | – | 186 | 45.4 | 154
UAGUGAUUGCAAGGAUAUGCUUGUGUUUUAUUUUUUUUAAUAUCUAACAUGAGGAUCACCCAUGUGCAGAAGGUGCUUGAUUUG [JR_SSNG2_Sub076] (Eterna round: R96, puzzle: Same State NG 2) | – | – | – | 46.5 | – | –
CGUCGUUUGAUAGGAUAUCGCUUUACAUGAGGAUCACCCAUGUUUACCUCGCUGGUUUUUCUUUCCGAGAAGGAUUCUGAUGUU [salish99_SSNG02_r04_030] (Eterna round: R96, puzzle: Same State NG 2) | – | – | – | 31.6 | 43.4 | 40.4
UGGUAACAUGAGGAUCACCCAUGUCAAGAGAAUCAAGGAUAUGGUAAGUAAUAAGAGAAUCUAGAAGGUGAAGUUG [Altered State 1-25 - Jieux - Same State 1] (puzzle: Same State 1) | – | 73.3 | – | – | – | –
GCUAGGAUUAAAGCCAACAUGAGGAUCACCCAUGUAUGUUGGUAGGAUAUCGUUUGCAAAGCAAACGAGAAGGGCUAACCUAGC [Mat - Same State NG 3 - JL Mod - D67] (Eterna round: R96, puzzle: Same State NG 3) | – | – | – | 73 | 88.3 | 92.6
AACAGACAUGAGGAUCACCCAUGUAGAAUUAUGGGAGGAUAUACAAAGACGAGAGUCAGAGUAGAAGGCCUAGGAC [salish99-ss1-163] (Eterna round: R96, puzzle: Same State 1) | – | – | – | 42.2 | 24.3 | 51.7
AACAAUCUAUCUGAGGAUAUCAUGAAAAAAACAUGAGGAUCACCCAUGUGCAGGAAAACUGCAUAUGAGAAGGCAGAUAGAUUGC [salish99_SS2_r3_004] (Eterna round: R96, puzzle: Same State 2) | – | – | – | 504 | – | –
UACAAUCUAUCUGAGGAUAUCAUGAAUUACACAUGAGGAUCACCCAUGUGCAGGAAAACUGCAUAUGAGAAGGCAGAUAGAUUGU [salish99_ss2_r3_065] (puzzle: Same State 2) | 81 | 1060 | 1970 | – | – | –
AAAAUAUAAAGAGAGGAUAUCCAAAGAACCACAUGAGGAUCACCCAUGUAAAGAAAGAAUAAGUGGGAGAAGGCUCAAAUAAUAA [Designing denovo 24] (Eterna round: R96, puzzle: Same State 2) | – | – | – | 82.8 | 24.8 | 114
AUUAGUUAUGCAGGAUAUGAUUAACAUGAGGAUCACCCAUGUGGUGUUGUGAGUAAGGAGAGUGAUCAGAAGGGCAUUUUUUUU [JMF's solution 67] (Eterna round: R96, puzzle: Same State NG 2) | – | – | – | 264 | 462 | 644
UGUCCAGCCUGUGCUGGUCUUUUGCAUGUACAUGAGGAUCACCCAUGUCGUGUUCAUGCUUUUUGCUCGUCUUUAAA [Photon Torp-02] (puzzle: Sensor for hsa-mir-208a) | 49.7 | 17.2 | 53.5 | – | – | –
GAAGCGGCAGAAUAAAACAUGAGGAUCACCCAUGUCGCGGUUUAGGAUAUGGGACGGGUAUGAACCCAGAAGGAGACCGCAGGC [Eternabot solution 2] (Eterna round: R96, puzzle: Same State NG 3) | – | – | – | 33.8 | 32.7 | 56.2
AUUUAACAUGAGGAUCACCCAUGUCAACAAAGUCGAGGAUAUGGGCAAAUAAAAUAAGAACCAGAAGGCGAAUAAU [salish99_ss1_r3_070] (puzzle: Same State 1) | 40.5 | 283 | 368 | – | – | –
UGUCCAGCCUGUGCUGGUCUUUAGCAUGUACAUGAGGAUCACCCAUGUCGUGUACAUGCUUUUUGCUCGUCUUUAAA [Photon Torp-05] (puzzle: Sensor for hsa-mir-208a) | 68.9 | 25.9 | 92.2 | – | – | –
GGCCUGAGUCAAGGAUAUGCUACCGUUUCGGUAGCAGAAGGUGAUCACAUGAGGAUCACCCAUGUUUACGGGAAGACCCGCGCC (Eterna round: R96, puzzle: Same State NG 1) | – | – | – | 141 | 1470 | 489
AGUCCAGCCUGAGCUGGACAAAAGCAUGUACAUGAGGAUCACCCAUGUCAUGUACAAGCUUUUUGCUCAUCUUAAAA [Mat - hsa-mir-208a - Mod of JL - D11] (puzzle: Sensor for hsa-mir-208a) | 624 | 16.4 | 922 | – | – | –
GGUCGGACAUGAGGAUCACCCAUGUGGUGACCGGAAACGGCAUAGGAUAUCUGUCCGAAAAGGUCAGAGAAGGGUGAACCGACC [Fiskers NG3ss - 69] (Eterna round: R96, puzzle: Same State NG 3) | – | – | – | 15.5 | 160 | 126
AGCUAGUACGAAGGAUAUACAAACAUGAGGAUCACCCAUGUAUACAUGGUUUGAUGAGACUACAUGUAGAAGGUCGUACUAGCA [SameState NG2 #14] (Eterna round: R96, puzzle: Same State NG 2) | – | – | – | 176 | – | –
GUGGCCCAGGCACAGGAUAUGUUUCUCGUAACAUGAGGAUCACCCAUGUGCCUAUGAGAUUUAAUGCAGAAGGGUGCACGCCACU [Mat - Same State 2 - Mod of UCT - D79] (puzzle: Same State 2) | 24.1 | 95.8 | 184 | – | – | –
GCGAGCGUACUUGCAACAUGAGGAUCACCCAUGUUAACUGGACAGGAUAUGGUACCGUUUCGGUACCAGAAGGGUUCCUCAAUG [JL SSNG3 3.62] (Eterna round: R96, puzzle: Same State NG 3) | – | – | – | 116 | 295 | 214
GCGGCGGCACGGCAGGAUAUGAUAAAACCUACAUGAGGAUCACCCAUGUCGGCGGGUUGCAAAAUUCAGAAGGGCCCUGUAGGCC [Leorzaonis] (puzzle: Same State 2) | 16.6 | 34.6 | 38.6 | – | – | –
AACAGUCGGCGAGGAUAUGGACGUACGGACUAACCCGUGCAGCUCACAUGAGGAUCACCCAUGUUCUAGAAGGCGCCACUGAAA [Onesusatza] (Eterna round: R96, puzzle: Same State NG 2) | – | – | – | 87.6 | 15.9 | 147
UUUGCAUGACGAGGAUAUCAUUUAUUUCUUGAUUGAGAAGGCGUUCUUUUUACUACCUAACAUGAGGAUCACCCAUGUGACAGU [JR_SSNG1_Sub048] (Eterna round: R96, puzzle: Same State NG 1) | – | – | – | 11.3 | – | –
